Reference: article PMC6969021

Key:
[1] = molecular target: firefly luciferase (FLuc), wild type (Photinus pyralis) [luciferase: P08659]
[2] = molecular target: FLucNC-Atto532 (Photinus pyralis); assay: AUC; sedimentation velocity, detection at 532 nm; GuHCl-denatured FLuc-Atto532 diluted to 200 nM in folding buffer with 3 µM DnaK, 1 µM DnaJ, 5 mM ATP

DnaJ, sequence (P08622 whole entry): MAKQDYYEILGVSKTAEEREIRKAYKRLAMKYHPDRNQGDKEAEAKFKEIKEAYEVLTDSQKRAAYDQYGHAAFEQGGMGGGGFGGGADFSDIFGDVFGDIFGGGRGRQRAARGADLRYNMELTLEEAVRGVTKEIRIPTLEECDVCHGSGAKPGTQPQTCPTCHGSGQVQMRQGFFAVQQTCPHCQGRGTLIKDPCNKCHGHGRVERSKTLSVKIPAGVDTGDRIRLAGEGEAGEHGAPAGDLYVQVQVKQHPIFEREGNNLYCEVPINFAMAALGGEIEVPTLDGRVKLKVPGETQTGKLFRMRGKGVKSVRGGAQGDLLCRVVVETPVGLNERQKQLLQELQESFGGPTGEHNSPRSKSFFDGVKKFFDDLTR
DnaK, sequence (P0A6Y8 whole entry): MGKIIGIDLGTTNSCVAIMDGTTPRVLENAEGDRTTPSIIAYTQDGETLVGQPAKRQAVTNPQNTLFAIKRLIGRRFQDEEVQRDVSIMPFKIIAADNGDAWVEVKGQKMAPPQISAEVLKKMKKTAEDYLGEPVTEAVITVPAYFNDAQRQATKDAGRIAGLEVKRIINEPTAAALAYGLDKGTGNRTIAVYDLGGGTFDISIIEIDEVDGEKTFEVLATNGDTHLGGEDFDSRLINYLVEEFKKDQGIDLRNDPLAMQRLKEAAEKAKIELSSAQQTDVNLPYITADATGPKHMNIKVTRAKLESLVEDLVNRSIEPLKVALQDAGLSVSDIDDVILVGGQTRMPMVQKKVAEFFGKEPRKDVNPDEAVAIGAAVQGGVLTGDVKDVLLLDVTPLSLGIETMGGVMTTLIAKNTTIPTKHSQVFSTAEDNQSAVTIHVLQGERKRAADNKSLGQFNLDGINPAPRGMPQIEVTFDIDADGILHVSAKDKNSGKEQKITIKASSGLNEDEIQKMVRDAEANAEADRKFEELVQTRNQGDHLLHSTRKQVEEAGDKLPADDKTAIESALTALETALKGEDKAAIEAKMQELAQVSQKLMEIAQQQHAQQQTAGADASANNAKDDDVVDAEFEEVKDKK

yield of luminescence refolding of FLuc in the presence of KJE without ATP [1] [%] | stoichiometry N (DnaK per FLuc) [2] | Substance
40 | – | DnaJ (from UniProt P08622 1-376) (natural protein)
– | 12 | DnaK (from UniProt P0A6Y8 1-638) (natural protein)
